The values that follow come from publication PMC9478642 (2022).

The chains are these.
B1: human T-plastin, full length, wild type [human] / F-actin (filaments of α-actin) [not stated] (parent complex)
chain 1: MDEMATTQISKDELDELKEAFAKVDLNSNGFICDYELHELFKEANMPLPGYKVREIIQKLMLDGDRNKDGKISFDEFVYIFQEVKSSDIAKTFRKAINRKEGICALGGTSELSSEGTQHSYSEEEKYAFVNWINKALENDPDCRHVIPMNPNTDDLFKAVGDGIVLCKMINLSVPDTIDERAINKKKLTPFIIQENLNLALNSASAIGCHVVNIGAEDLRAGKPHLVLGLLWQIIKIGLFADIELSRNEALAALLRDGETLEELMKLSPEELLLRWANFHLENSGWQKINNFSADIKDSKAYFHLLNQIAPKGQKEGEPRIDINMSGFNETDDLKRAESMLQQADKLGCRQFVTPADVVSGNPKLNLAFVANLFNKYPALTKPENQDIDWTLLEGETREERTFRNWMNSLGVNPHVNHLYADLQDALVILQLYERIKVPVDWSKVNKPPYPKLGANMKKLENCNYAVELGKHPAKFSLVGIGGQDLNDGNQTLTLALVWQLMRRYTLNVLEDLGDGQKANDDIIVNWVNRTLSEAGKSTSIQSFKDKTISSSLAVVDLIDAIQPGCINYDLVKSGNLTEDDKHNNAKYAVSMARRIGARVYALPEDLVEVKPKMVMTVFACLMGRGMKRV
chain 2: not shown

In the test the parent is B1. In words: sequential low-speed/high-speed F-actin cosedimentation assay; 5 μM actin, 2 μM plastin; read off a plot.
With chain 1 W390A, the response is ~0.37 proportion of T-plastin in low-speed pellet.
The figure for chain 1 R594A is ~0.77 proportion of T-plastin in low-speed pellet.
